Assay results: patent US20230341395A1

Target: Recombinant SARS-CoV-2 Spike protein antigen (Z03501, Genscript) (SARS-CoV-2) (UniProt P0DTC2)

Substance: Monoclonal antibody against the SARS-CoV-2 Spike protein (A02038, Genscript)
- Kd: 2.39 nM
- koff: 0.000603 s⁻¹
- kon: 252000 M⁻¹ s⁻¹
